This note sets out measurements from the Human Domainome abundance scans (Beltran et al. 2025).

± gives the uncertainty stated by the source.

This data set can be described thus: abundance fitness (aPCA) (normalised: wild type 0, dead -1); higher = more abundant; growth selection in yeast, the domain comes from the species named. The note with it: Homo sapiens.
Take “Lipoamide acyltransferase component of branched-chain alpha-keto acid dehydrogenase complex, mitochondrial G198W, P11182”: the abundance fitness was -0.982 ± 0.16.
As to “Lipoamide acyltransferase component of branched-chain alpha-keto acid dehydrogenase complex, mitochondrial G214A, P11182”, the abundance fitness was 0.014 ± 0.054.
On to “Lipoamide acyltransferase component of branched-chain alpha-keto acid dehydrogenase complex, mitochondrial G214C, P11182”, for which the abundance fitness is -0.066 ± 0.057.
“Lipoamide acyltransferase component of branched-chain alpha-keto acid dehydrogenase complex, mitochondrial G214D, P11182” gave an abundance fitness of -0.041 ± 0.071.
As for “Lipoamide acyltransferase component of branched-chain alpha-keto acid dehydrogenase complex, mitochondrial G214E, P11182”, the abundance fitness was determined as 0.135 ± 0.12.
The figure for “Lipoamide acyltransferase component of branched-chain alpha-keto acid dehydrogenase complex, mitochondrial G214H, P11182” is 0.016 ± 0.17.
The figure for “Lipoamide acyltransferase component of branched-chain alpha-keto acid dehydrogenase complex, mitochondrial G214K, P11182” is 0.129 ± 0.076; for “Lipoamide acyltransferase component of branched-chain alpha-keto acid dehydrogenase complex, mitochondrial G214M, P11182” it is -0.154 ± 0.23; for “Lipoamide acyltransferase component of branched-chain alpha-keto acid dehydrogenase complex, mitochondrial G214N, P11182” it is -0.41 ± 0.18.
The figure for “Lipoamide acyltransferase component of branched-chain alpha-keto acid dehydrogenase complex, mitochondrial G214P, P11182” is -0.474 ± 0.2; for “Lipoamide acyltransferase component of branched-chain alpha-keto acid dehydrogenase complex, mitochondrial G214Q, P11182” it is 0.133 ± 0.074.
The substance “Lipoamide acyltransferase component of branched-chain alpha-keto acid dehydrogenase complex, mitochondrial G214R, P11182” registered an abundance fitness of -0.002 ± 0.039.
Substance “Lipoamide acyltransferase component of branched-chain alpha-keto acid dehydrogenase complex, mitochondrial G214S, P11182” yielded an abundance fitness of -0.028 ± 0.078.
On to “Lipoamide acyltransferase component of branched-chain alpha-keto acid dehydrogenase complex, mitochondrial G214T, P11182”, for which the abundance fitness was -0.034 ± 0.13.
The figure for “Lipoamide acyltransferase component of branched-chain alpha-keto acid dehydrogenase complex, mitochondrial G214V, P11182” is -0.08 ± 0.065; for “Lipoamide acyltransferase component of branched-chain alpha-keto acid dehydrogenase complex, mitochondrial G214W, P11182” it is -0.315 ± 0.054; for “Lipoamide acyltransferase component of branched-chain alpha-keto acid dehydrogenase complex, mitochondrial G214Y, P11182” it is -0.189 ± 0.12.
The figure for “Lipoamide acyltransferase component of branched-chain alpha-keto acid dehydrogenase complex, mitochondrial I186A, P11182” is -0.555 ± 0.044; for “Lipoamide acyltransferase component of branched-chain alpha-keto acid dehydrogenase complex, mitochondrial I186C, P11182” it is -0.239 ± 0.074.
Take “Lipoamide acyltransferase component of branched-chain alpha-keto acid dehydrogenase complex, mitochondrial I186D, P11182”: the abundance fitness is -0.81 ± 0.077.
The figure for “Lipoamide acyltransferase component of branched-chain alpha-keto acid dehydrogenase complex, mitochondrial I186E, P11182” is -0.543 ± 0.065; for “Lipoamide acyltransferase component of branched-chain alpha-keto acid dehydrogenase complex, mitochondrial I186F, P11182” it is -0.9 ± 0.18.
The figure for “Lipoamide acyltransferase component of branched-chain alpha-keto acid dehydrogenase complex, mitochondrial I186G, P11182” is -0.748 ± 0.042; for “Lipoamide acyltransferase component of branched-chain alpha-keto acid dehydrogenase complex, mitochondrial I186H, P11182” it is -0.679 ± 0.091.
With “Lipoamide acyltransferase component of branched-chain alpha-keto acid dehydrogenase complex, mitochondrial I186K, P11182”, the abundance fitness is -0.533 ± 0.4.
For “Lipoamide acyltransferase component of branched-chain alpha-keto acid dehydrogenase complex, mitochondrial I186L, P11182”, the abundance fitness was -0.32 ± 0.057.
The figure for “Lipoamide acyltransferase component of branched-chain alpha-keto acid dehydrogenase complex, mitochondrial I186M, P11182” is -0.419 ± 0.069; for “Lipoamide acyltransferase component of branched-chain alpha-keto acid dehydrogenase complex, mitochondrial I186N, P11182” it is -0.735 ± 0.097; for “Lipoamide acyltransferase component of branched-chain alpha-keto acid dehydrogenase complex, mitochondrial I186P, P11182” it is -0.918 ± 0.11.
In turn, “Lipoamide acyltransferase component of branched-chain alpha-keto acid dehydrogenase complex, mitochondrial I186R, P11182” came in with an abundance fitness of -0.722 ± 0.049.
“Lipoamide acyltransferase component of branched-chain alpha-keto acid dehydrogenase complex, mitochondrial I186S, P11182” gave an abundance fitness of -0.594 ± 0.064.
The figure for “Lipoamide acyltransferase component of branched-chain alpha-keto acid dehydrogenase complex, mitochondrial I186T, P11182” is -0.484 ± 0.091; for “Lipoamide acyltransferase component of branched-chain alpha-keto acid dehydrogenase complex, mitochondrial I186V, P11182” it is -0.046 ± 0.046.
The figure for “Lipoamide acyltransferase component of branched-chain alpha-keto acid dehydrogenase complex, mitochondrial I186W, P11182” is -1.05 ± 0.094; for “Lipoamide acyltransferase component of branched-chain alpha-keto acid dehydrogenase complex, mitochondrial I200A, P11182” it is -0.66 ± 0.048.
“Lipoamide acyltransferase component of branched-chain alpha-keto acid dehydrogenase complex, mitochondrial I200C, P11182”: the abundance fitness is -0.589 ± 0.062.
The figure for “Lipoamide acyltransferase component of branched-chain alpha-keto acid dehydrogenase complex, mitochondrial I200D, P11182” is -0.567 ± 0.21; for “Lipoamide acyltransferase component of branched-chain alpha-keto acid dehydrogenase complex, mitochondrial I200E, P11182” it is -0.558 ± 0.072; for “Lipoamide acyltransferase component of branched-chain alpha-keto acid dehydrogenase complex, mitochondrial I200F, P11182” it is -0.76 ± 0.097.
Substance “Lipoamide acyltransferase component of branched-chain alpha-keto acid dehydrogenase complex, mitochondrial I200G, P11182” showed an abundance fitness of -0.667 ± 0.045.
The substance “Lipoamide acyltransferase component of branched-chain alpha-keto acid dehydrogenase complex, mitochondrial I200H, P11182” returned an abundance fitness of -0.678 ± 0.089.
The figure for “Lipoamide acyltransferase component of branched-chain alpha-keto acid dehydrogenase complex, mitochondrial I200L, P11182” is -0.334 ± 0.043; for “Lipoamide acyltransferase component of branched-chain alpha-keto acid dehydrogenase complex, mitochondrial I200M, P11182” it is -0.563 ± 0.061; for “Lipoamide acyltransferase component of branched-chain alpha-keto acid dehydrogenase complex, mitochondrial I200N, P11182” it is -0.711 ± 0.28.
“Lipoamide acyltransferase component of branched-chain alpha-keto acid dehydrogenase complex, mitochondrial I200P, P11182” came in with an abundance fitness of -0.483 ± 0.05.
“Lipoamide acyltransferase component of branched-chain alpha-keto acid dehydrogenase complex, mitochondrial I200Q, P11182” registered an abundance fitness of -0.643 ± 0.07.
